{
  "source": "paper PMC3017119",
  "about": "“Structural Basis for the Recognition of Cellular mRNA Export Factor REF by Herpes Viral Proteins HSV-1 ICP27 and HVS ORF57” (PLoS Pathogens, 2011)",
  "binders": {"B1": {"name": "HVS ORF57^8–120 (recombinant, for NMR) (domain or fragment)", "chain": "GISSDDDFDSSDSSSDEEESDTSPQIMKSDVTMASPPSTPEPSPDVSASTSNLKRERQRSPITWEHQSPLSRVYRSPSPMRFGKRPRISSNSTSRSCKTSWADRVREAAAQRR"}, "B2": {"name": "ICP27^1–138 (recombinant, for NMR) (domain or fragment)", "chain": "MATDIDMLIDLGLDLSDSDLDEDPPEPAESRRDDLESDSSGECSSSDEDMEDPHGEDGPEPILDAARPAVRPSRPEDPGVPSTQTPRPTERQGPNDPQPAPHSVWSRLGARRPSCSPEQHGGKVARLQPPPTKAQPAR", "notes": "HSV-1 ICP27, residues 1-138"}, "B3": {"name": "REF^54–155 (recombinant, for NMR) (domain or fragment)", "chain": "not shown", "notes": "15N- or 13C/15N-labelled or unlabelled, by experiment; also called Δ53N"}},
  "conditions_in_all_cases": "both partners purified",
  "key": {"[1]": {"molecular_target": "REF^1–155 (recombinant, for NMR) (murine, UniProt Q9JJW6 1-155)", "assay": "NMR titration"}, "[2]": {"molecular_target": "B3", "assay": "NMR titration; […]; 30°C; […], pH 6.2"}, "ICP27^103–112 W105A": {"molecular_target": "T1, ICP27^103–112 W105A (Herpes simplex virus 1, W105A (stands in the printed letters))", "T1 construct": "also called mutant peptide W105A; source: synthetic peptide (Peptide Protein Research Ltd)", "assay": "NMR titration; […]; 30°C; […], pH 6.2"}, "HVS ORF57^103–120 W108A": {"molecular_target": "T2, HVS ORF57^103–120 W108A (Herpesvirus Saimiri, W108A (stands in the printed letters))", "T2 construct": "source: synthetic peptide (Peptide Protein Research Ltd)", "assay": "NMR titration; […]; 30°C; […], pH 6.2"}, "[3]": {"molecular_target": "B1", "assay": "NMR titration; […]; 30°C; […], pH 6.2"}, "HVS ORF57^103–120 V112A": {"molecular_target": "T3, HVS ORF57^103–120 V112A (Herpesvirus Saimiri, V112A (stands in the printed letters))", "T3 construct": "source: synthetic peptide (Peptide Protein Research Ltd)", "assay": "NMR titration; […]; 30°C; […], pH 6.2"}, "ICP27^103–112 L108A": {"molecular_target": "T4, ICP27^103–112 L108A (Herpes simplex virus 1, L108A (stands in the printed letters))", "T4 construct": "source: synthetic peptide (Peptide Protein Research Ltd)", "assay": "NMR titration; […]; 30°C; […], pH 6.2"}, "HVS ORF57^103–120 R111A": {"molecular_target": "T5, HVS ORF57^103–120 R111A (Herpesvirus Saimiri, R111A (stands in the printed letters))", "T5 construct": "source: synthetic peptide (Peptide Protein Research Ltd)", "assay": "NMR titration; […]; 30°C; […], pH 6.2"}, "ICP27^103–112 R107A": {"molecular_target": "T6, ICP27^103–112 R107A (Herpes simplex virus 1, R107A (stands in the printed letters))", "T6 construct": "source: synthetic peptide (Peptide Protein Research Ltd)", "assay": "NMR titration; […]; 30°C; […], pH 6.2"}, "[4]": {"molecular_target": "B2", "assay": "NMR titration"}},
  "data": [
    {"binder": "B1", "values": [
      {"measurement": "binding result", "setting": "[1]", "result": "binds"}
    ]},
    {"binder": "TGYARIERGHRR (also called VZV-ORF4^108–119 peptide; source: synthetic peptide (Peptide Protein Research Ltd))", "note": "[VZV ORF4^108–119]", "values": [
      {"measurement": "Kd", "setting": "[2]", "result": "> 1000", "unit": "µM"}
    ]},
    {"binder": "B2", "values": [
      {"measurement": "binding result", "setting": "[1]", "result": "binds"}
    ]},
    {"binder": "KTSWADRVREA (also called WT HVS-ORF57^105–115; WT-ORF57^105–115; source: synthetic peptide (Peptide Protein Research Ltd))", "note": "[HVS ORF57^105–115]", "values": [
      {"measurement": "Kd", "setting": "[2]", "result": "> 1000", "unit": "µM"}
    ]},
    {"binder": "B3", "values": [
      {"measurement": "Kd", "setting": "ICP27^103–112 W105A", "result": "550 ± 210", "unit": "µM"},
      {"measurement": "Kd", "setting": "HVS ORF57^103–120 W108A", "result": "> 7500", "unit": "µM"},
      {"measurement": "Kd", "setting": "[3]", "result": "78 ± 12", "unit": "µM"},
      {"measurement": "Kd", "setting": "HVS ORF57^103–120 V112A", "result": "156 ± 32", "unit": "µM"},
      {"measurement": "Kd", "setting": "ICP27^103–112 L108A", "result": "> 5000", "unit": "µM"},
      {"measurement": "Kd", "setting": "HVS ORF57^103–120 R111A", "result": "254 ± 50", "unit": "µM"},
      {"measurement": "Kd", "setting": "ICP27^103–112 R107A", "result": "> 10000", "unit": "µM"},
      {"measurement": "binding result", "setting": "[4]", "result": "binds"}
    ]},
    {"binder": "SVWSRLGARR (HSV-1 ICP27, residues 103-112; the dash in the printed line is an alignment gap; also called WT ICP27^103–112 peptide; source: synthetic peptide (Peptide Protein Research Ltd))", "note": "[ICP27^103–112]", "values": [
      {"measurement": "Kd", "setting": "[2]", "result": "99 ± 30", "unit": "µM"}
    ]},
    {"binder": "SVWSRLGA (HSV-1 ICP27, residues 103-110; the dash in the printed line is an alignment gap; also called WT ICP27^103–110 peptide; source: synthetic peptide (Peptide Protein Research Ltd))", "note": "[ICP27^103–110]", "values": [
      {"measurement": "Kd", "setting": "[2]", "result": "25 ± 7", "unit": "µM"}
    ]},
    {"binder": "GPLGSVWSRLGARRPSCSPEQHGGKVARLQPPPTKAQPAR (remainder of the PreScission protease cleavage site; HSV-1 ICP27, residues 103-138; also called WT-ICP27^103–138; ICP27^103–138 WT peptide; source: expressed as GST-fusion from pGEX-6P-1, cleaved by PreScission protease on GSH resin, purified (Sephacryl S-100 HR); not shown: GST, N-terminal, cleaved)", "note": "[ICP27^103–138]", "values": [
      {"measurement": "Kd", "setting": "[2]", "result": "28 ± 8.7", "unit": "µM"}
    ]},
    {"binder": "GPLGSVWSRLGARRPECSPEQHGGKVARLQPPPTKAQPAR (remainder of the PreScission protease cleavage site; HSV-1 ICP27, residues 103-138 with S114E (mimic of phosphoserine 114); source: expressed as GST-fusion from pGEX-6P-1, cleaved by PreScission protease on GSH resin, purified (Sephacryl S-100 HR); not shown: GST, N-terminal, cleaved)", "note": "[ICP27^103–138 S114E]", "values": [
      {"measurement": "Kd", "setting": "[2]", "result": "17 ± 7.9", "unit": "µM"}
    ]},
    {"binder": "NRYGKKIKFGT (also called KSHV-ORF57^100–110 peptide; source: synthetic peptide (Peptide Protein Research Ltd))", "note": "[KSHV ORF57^100–110]", "values": [
      {"measurement": "Kd", "setting": "[2]", "result": "> 100000", "unit": "µM"}
    ]},
    {"binder": "SCKTSWADRVREAAAQRR (also called WT HVS-ORF57^103–120; source: synthetic peptide (Peptide Protein Research Ltd))", "note": "[HVS ORF57^103–120]", "values": [
      {"measurement": "Kd", "setting": "[2]", "result": "45 ± 15", "unit": "µM"}
    ]}
  ]
}
